# Results: the RNAGym collection of RNA variant scans (doi:10.7554/elife.80360)
# B1: Twister Ribozyme (parent)
# chain: AACACUGCCAAUGCCGGUCCCAAGCCCGGAUAAAAGUGGAGGGGGCGG
# Variants of: B1
# Assay: self-cleavage, relative activity (ratio to wild type); higher = more cleavage; co-transcriptional
row,Variant,self-cleavage
1,C3A A4U,0.0689
2,C3A A4C,0.0653
3,A1G G44U,0.287
4,A1G G44C,0.251
5,A1U G44U,0.0595
6,A1U G44C,0.0624
7,A2C G44C,0.035
8,A1U G24A,0.062
9,A2C U31G,0.177
10,A1U G42A,0.0707
11,A1U G42U,0.0745
12,A2C C3G,0.127
13,A2U A35C,0.745
14,A1G U12A,0.515
15,A1G U12G,0.527
16,A1G U12C,0.45
17,A2G A11U,0.583
18,A2G A11C,0.206
19,A1U C14A,0.0917
20,A1U C14G,0.0363
21,A1U G29A,0.0545
22,A2U G42C,0.134
23,A2U G42U,0.172
24,A2U G42A,0.164

row,Variant,self-cleavage
1,A2C A22U,0.0564
2,A2C A22C,0.0812
3,A2C A22G,0.0432
4,A2C G28A,0.0374
5,A2G G28A,0.269
6,A2U C20G,0.0669
7,A2G G16C,0.119
8,A1U C27A,0.0592
9,A1U G43C,0.0749
10,A2U G48C,0.67
11,A2U G48A,0.353
12,A2U C9U,0.133
13,A2U C9A,0.0899
14,A2G U12A,0.367
15,A2G U12G,0.252
16,A1U C26U,0.0863
17,A1U C26G,0.0605
18,A2U A10C,0.449
19,A2U A10U,0.604
20,A2C G16C,0.0398
21,A2C G16U,0.0604
22,A1U A35C,0.0998
23,A1U A35G,0.025
24,A2C G17U,0.0456

row,Variant,self-cleavage
1,A2C G17A,0.063
2,A2G C25G,0.0917
3,A2G C25A,0.127
4,A2C G41A,0.0488
5,A2C G41C,0.0702
6,A2C G41U,0.0822
7,A1U C3A,0.222
8,C3A A23C,0.0997
9,A2G G36A,0.118
10,A2G C8U,0.194
11,A2G C8A,0.153
12,A2G C8G,0.0347
13,A2C A4C,0.154
14,A2C A4G,0.0453
15,A2C A4U,0.0426
16,A2U G47A,0.292
17,A1U C25A,0.0664
18,A1G G28U,0.428
19,A2G U18A,0.123
20,A2G U18G,0.0967
21,A2G C21U,0.0523
22,A1U U37G,0.0556
23,A1U U37A,0.0677
24,A2U U18A,0.0781

row,Variant,self-cleavage
1,A2U U18G,0.0917
2,A2G G38A,0.448
3,A2G G38C,0.118
4,A1U G39C,0.0764
5,A1U G39A,0.0588
6,A1U G48U,0.0644
7,A1U G48A,0.0713
8,A1U G48C,0.0772
9,A2C A33C,0.0306
10,A2C A33U,0.0693
11,A2C A33G,0.107
12,A2C C20G,0.0956
13,A1U A30U,0.0367
14,A2C C27A,0.0541
15,A2G C19G,0.121
16,A2G C19U,0.155
17,A2G G24C,0.0995
18,A2G G24A,0.082
19,A2C C21G,0.0366
20,A2C C21U,0.0368
21,A2U U37A,0.202
22,A2G A23C,0.0651
23,A2G A23U,0.0843
24,A2G A23G,0.0805

row,Variant,self-cleavage
1,A2C A30C,0.0338
2,A2U A33U,0.655
3,A2U A33C,0.457
4,A2U U12A,0.667
5,A2U U12G,0.557
6,A2C C15U,0.088
7,C3A A30C,0.225
8,C3A A30G,0.202
9,A1G G41U,0.228
10,A1G G17A,0.367
11,A1G G24A,0.144
12,A1G G24C,0.18
13,A2C G48C,0.0956
14,A1U A2G,0.0622
15,A1U A2C,0.118
16,A1U A40G,0.074
17,A1U A40U,0.0682
18,A1G G39U,0.198
19,A2G G47A,0.232
20,A2G G47U,0.117
21,A1U A34C,0.092
22,A2U G39C,0.18
23,A2U G39U,0.188
24,A1U C46U,0.0668

row,Variant,self-cleavage
1,A2G A30U,0.256
2,A2G A30C,0.23
3,A1U U12G,0.0921
4,A1U U12C,0.0693
5,A1U U12A,0.0685
6,A2G C27A,0.0876
7,A1U U18A,0.0328
8,A1U U18G,0.0681
9,A1U U18C,0.054
10,A2U G43A,0.128
11,A2C C5U,0.0782
12,A2U G7C,0.0748
13,A1G G13A,0.383
14,A2U G29U,0.484
15,A2U G29A,0.474
16,A2G C3G,0.583
17,A2G C3A,0.171
18,A2C C25A,0.0593
19,A2U C21U,0.0725
20,A2U C21G,0.0765
21,A2U C21A,0.0621
22,A2C C19G,0.0832
23,A2C C19A,0.0459
24,A2G C15G,0.0529

row,Variant,self-cleavage
1,A2G C15U,0.503
2,A2G C15A,0.136
3,A1U C5G,0.0467
4,A2C C46G,0.0474
5,A2C C46A,0.0436
6,A2C C46U,0.0993
7,A2U G28U,0.519
8,A1U C21U,0.0559
9,A1U C21G,0.0652
10,A2G G39C,0.0951
11,A2G G39U,0.122
12,A1G C27G,0.178
13,A1G C27A,0.189
14,A1G C27U,0.36
15,A2C C26G,0.0867
16,A1U A23U,0.0522
17,A2C A35G,0.0429
18,A2C A35C,0.064
19,A1G U31A,0.24
20,A1G U31G,0.533
21,A1G U31C,0.409
22,A2U C5U,0.448
23,A2U C5G,0.172
24,A2U C5A,0.13

row,Variant,self-cleavage
1,A2C G43A,0.1
2,A2C G43C,0.0309
3,A2C G43U,0.0462
4,A2U C3U,0.221
5,A2U C3A,0.077
6,A2U C3G,0.113
7,A2U C26A,0.131
8,A2G,0.411
9,A2C,0.0941
10,A2U,0.738
11,A2G G45C,0.0901
12,A2C C14U,0.0681
13,A2U G45U,0.344
14,A1G G16A,0.5
15,A1G G16U,0.726
16,A2G G17C,0.0381
17,A2G G17A,0.113
18,C3A A11C,0.153
19,C3A A11U,0.212
20,A2G A4G,0.212
21,A2U A4U,0.0802
22,A2U A4G,0.413
23,A1G G29C,0.29
24,A1G G29A,0.437

row,Variant,self-cleavage
1,A1U A4U,0.0259
2,A1U A4G,0.0751
3,A1G C25G,0.205
4,A1G C25A,0.197
5,A2U A30U,0.713
6,A1U C20A,0.0791
7,A2U A40G,0.163
8,A2G U31A,0.328
9,A2G U31G,0.324
10,A2G U31C,0.3
11,A2G A34G,0.192
12,A2G A34C,0.151
13,A2U G36C,0.129
14,A2U G17A,0.131
15,A2G U37C,0.0955
16,A2U A23G,0.0976
17,A2G G13U,0.0873
18,A2G G13C,0.0608
19,A2G G13A,0.131
20,A2C U12C,0.094
21,A2C U12A,0.0702
22,A2C G39U,0.0688
23,A2U A11C,0.309
24,A2U A11U,0.75

row,Variant,self-cleavage
1,A2C A10U,0.0864
2,A2C A10C,0.0739
3,A1U G45U,0.0565
4,A1U G45C,0.0573
5,A2U G24C,0.109
6,A2U G24A,0.112
7,A2C U18G,0.0901
8,A2C U18A,0.0761
9,A2C U18C,0.0934
10,A2G A10U,0.346
11,A1G G7C,0.0808
12,A1G U6C,0.202
13,A1G U6A,0.346
14,A1G U6G,0.0944
15,A1U G7C,0.0703
16,A2G C9A,0.104
17,A2G C9U,0.0996
18,A1U G36A,0.0371
19,A2G C26G,0.035
20,A2G C26U,0.08
21,A2G C26A,0.134
22,A2G G7U,0.0648
23,A1G G36C,0.227
24,A1U G17U,0.0683

row,Variant,self-cleavage
1,A1U G17C,0.055
2,A2U G41U,0.157
3,A2C A23C,0.0233
4,A1G U37C,0.192
5,A2U G38C,0.252
6,A2U G38A,0.789
7,A2U G38U,0.184
8,A1U U31G,0.0468
9,A1U U31A,0.0544
10,A2C G13U,0.0549
11,A2C G13C,0.0312
12,A2G C14A,0.291
13,A2U U31A,0.605
14,A2U U31G,0.626
15,A2C G24A,0.0674
16,A1U G28C,0.0644
17,A1U G28U,0.0658
18,A2U A22G,0.0815
19,A2U A22C,0.311
20,A2C A11G,0.102
21,A1U A22C,0.0885
22,A1G G38A,0.432
23,A2U G16A,0.256
24,A2G G41A,0.102

row,Variant,self-cleavage
1,A2G G41U,0.0697
2,A2C C9U,0.0433
3,A2U C15G,0.0661
4,A2U C15A,0.194
5,A1U A11G,0.0739
6,A1U A11C,0.0741
7,A1U C9G,0.0577
8,A2U C27A,0.124
9,A2U C27G,0.126
10,A2U C27U,0.357
11,A2U U6G,0.0884
12,A2U U6A,0.185
13,A2U C25A,0.0735
14,A2U C25G,0.0728
15,A2U C25U,0.169
16,A2G A35U,0.211
17,A2G A35G,0.226
18,A2C C8G,0.0519
19,A2C U37G,0.057
20,A1G G43A,0.176
21,A1G G43U,0.243
22,C3A A22G,0.0923
23,C3A A22C,0.115
24,A1U A10C,0.0358

row,Variant,self-cleavage
1,A1U A10U,0.0883
2,A2G G43C,0.122
3,A2G G43U,0.119
4,A2G G43A,0.104
5,A2C G42U,0.0469
6,A2C G42C,0.0693
7,A2C G42A,0.0532
8,A2G G48U,0.255
9,A2G G48C,0.389
10,A1U G38U,0.0843
11,A2C G45C,0.0767
12,A2C G45A,0.0666
13,A2C G7U,0.0484
14,A2C U6G,0.0861
15,A2C U6A,0.0688
16,A1U G16U,0.0446
17,A2U C8U,0.109
18,A2U C8G,0.0705
19,A1G C46U,0.393
20,A1U A33C,0.0396
21,A1U A33U,0.0603
22,A2U C14A,0.531
23,A1G G47A,0.334
24,A1G G47C,0.385

row,Variant,self-cleavage
1,A1G G47U,0.278
2,A2G C46G,0.431
3,A2G C46A,0.2
4,A2U A32U,0.722
5,A2U C19U,0.163
6,A2U C19A,0.129
7,A1G G45C,0.254
8,A1G G45A,0.32
9,A1U C15A,0.0603
10,A1U C15G,0.0744
11,A2U C46G,0.53
12,A2G U6A,0.192
13,C3A A10C,0.308
14,A1U G47U,0.0673
15,A1U G47A,0.0626
16,A2U A34G,0.292
17,A2C G36A,0.0575
18,A2C G36U,0.0783
19,A2G G42A,0.148
20,A1G G48A,0.414
21,A1G G48U,0.409
22,A2C A34G,0.0505
